Measurements as given in patent publication US20140315817A1.

Target: FLAG-tagged, single-chain human FcRn (human) (UniProt P61769)
Experiment: ELISA at pH 5.5, HSA variant coated, FLAG-tagged single-chain FcRn titrated; column '~Kd at pH 5.5', rank 13; the sheet gives the mutation of HSA-18 as V424I

FLAG-tagged, single-chain human FcRn (human), sequence (P61769 other isoform, or with tags, fused parts or gaps limits assumed): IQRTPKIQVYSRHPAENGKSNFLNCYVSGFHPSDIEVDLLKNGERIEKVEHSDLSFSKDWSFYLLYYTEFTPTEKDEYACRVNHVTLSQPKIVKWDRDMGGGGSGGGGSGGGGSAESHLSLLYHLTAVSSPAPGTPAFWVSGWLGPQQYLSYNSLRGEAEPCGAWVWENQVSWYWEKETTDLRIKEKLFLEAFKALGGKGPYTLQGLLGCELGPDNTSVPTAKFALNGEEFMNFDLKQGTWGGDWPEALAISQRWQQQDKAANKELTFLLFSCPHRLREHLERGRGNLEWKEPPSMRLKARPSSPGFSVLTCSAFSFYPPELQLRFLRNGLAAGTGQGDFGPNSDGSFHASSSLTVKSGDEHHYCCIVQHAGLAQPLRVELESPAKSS

- Kd: > 100 nM
Substance: hsa-18: full length HSA V241I (from UniProt P02768 25-609)
